The DeepSol protein solubility set

Assay: soluble on expression in E. coli; label from the status in PepcDB or PDB records

Row | Sequence | soluble on expression in E. coli
1 | MESSGKSSANPNLLAETLTTMQAQLQTQTEISQQVMEDNKNQSALLKQQREMSQALLEENKRLRAAQGDQPRFVAVGEKPLNSVKLMSDLLRQLPKYHFDVSEPDSFTKWWARHKLTFTEDGAELSNRERNRMLVARLEESTFQRFVDSQRDVEDIYSVPVEDTIKALSKSFGSQRSLMIRRQSCLLISRASGASMDPLEYTNLVGEAVLDAKLSNMSTDDWSIFIFLRGMDAPEDALAKRYLMQYYEQFERKDEKLKLSDVHDEWIRYIQTQQQSKVITVTPARHPKFEVNQVDADDKKKDSRKGNYRPPYCYKCKVVGHVSKDCPQSSTNSGVTNRKTEHSEVNTLEVGSGRQTSPSLRLNVEGQQIDFTFDTGSDITLISVQNWQKIGKPHLEKVHHKICCANGTEIAVKGRVLVWFKVKGVEYTEYVYVWNRNNNLLGTSWMRHSPQMRDALAVMVNHISTVDNSKQNSHSFSRIPTGYKDRAENVGRHVVASAPRSSKRQYVRFARNKAFQIGQLCLARVQGEHDFGWIYGVVQRQVNGVLYEVQLGSRIQRIHTNQLRHICGRRSRGNDYASSFIENPCKLSLLENIPRSSCRQKFVAQGVRGEGREANPVLVSDSSVFGFSAPDLSACESVGSRSAREVVSSVAGNARNASGANITTIHVTESKSSLKKSHRRRRRVAKSRQSYTAGSSPIKETHLDPLLESDVASDGERFQPGILLRHSLRQSHPRQVVRGSAPNTDHVSTRRRGRDTASGRDAPSPGIISGFLSYKRGDVVDGT | soluble
2 | MESTGSVGEAPGGPRVLVVGGGIAGLGAAQRLCGHSAFPHLRVLEATARAGGRIRSERCFGGVVEVGAHWIHGPSRGNPVFQLAAEYGLLGEKELSQENQLVETGGHVGLPSVSYASSGASVSLQLVAEMATLFYGLIDQTREFLHAAETPVPSVGEYLKKEIGQHVAGWTEDEETRKLKLAVLNSFFNLECCVSGTHSMDLVALAPFGEYTVLPGLDCTFSKGYQGLTNCMMAALPEDTVVFEKPVKTIHWNGSFQEAAFPGETFPVSVECEDGDRFPAHHVIVTVPLGFLREHLDTFFDPPLPAEKAEAIRKIGFGTNNKIFLEFEEPFWEPDCQLIQLVWEDTSPLEDAAPELQDAWFRKLIGFVVLPAFASVHVLCGFIAGLESEFMETLSDEEVLLCLTQVLRRVTGNPRLPAPKSVLRSRWHSAPYTRGSYSYVAVGSTGGDLDLLAQPLPADGAGAQLQILFAGEATHRTFYSTTHGALLSGWREADRLLSLWAPQVQQPRPRL | not soluble
3 | METFHWKVRPDMNVVSEPKVVTVKLGDGYEQRRAAGLNNQLSTYSVTIRVRKGEHPSLKAFLERHGGVRAFQWTPPYDWKLIRVVCRKWSASVGALWVTVTADFEQVVN | not soluble
4 | METKAKNKTQLAYEYILSRIENGVYGPGYRVVIDQIARELGLSSIPVREAIRQLEAEGLVEFKPYTGAVVSNINEKEYIETLSVLAVLEGYATALGSANLTKEAINELERLNERMERALEELELERFSELNYEFHSLIYAHCGNAYLEEQIKQIWQRMKRIRVYGFTFVPQRAKASIEEHREIIRLLHEQAPPHEIEQYVRQHKINTAEAFKRRR | not soluble
5 | METKEAIIHVIVATAEWGKDQLRYRRHRLAEFLAAQEETKEVIWVCPAPRAQGKEFQEVHSGIRQFAVKDLLQKKMFRFGRYTDVFYRHKLSPLLDELTPASANGERCCLWYTFPGFPLLSSLYSWDQVIYDCSDLWAAPISGRSNLLSEFRRKVIKSAELRIIQRADSITCSSDYLHKEVDKKLTAGREKVHTVENGVEYELFSANKQAPDRSILQGREGIVLGFIGGIKPKLDFKMIKEAALQKPDWTFLWVGPDATNGDVSFQELLRLPNVIWTGPADPKEVPHYMELIDIGIMPYKQSPYNQAVFPLKLFEFLAAGKPVVGTNLPSTSKMQKPYVYEYVEGDHPIDFIAACEKVLGQNGDETYKEMRRNIARTQDWNCLFRQIMKYTGIQKHAMAGDPLEHHHHHH | not soluble
6 | METLHTQEDIIKMLDSLLRPAEPFWNEFYANREKDVPFFENVPDENLVSYIQKKRVSKGKVLELGCGPGRNAIYLANEGFDVTAVDVSIEGINWAKERALAKGVEIEFICDSIFNLEVQNEFDFVYDSGCLHHIPPHRRVNYVDLIKNALKSGGYFGLTCFAAGDLDERNGSEITDWDVYRGWSLQGGLAYSEEKLREIFKGFEVIEIRKMEQIEQPNTMFGESFLWTALFKKNLEHHHHHH | not soluble
7 | METPLEKALTTMVTTFHKYSGREGSKLTLSRKELKELIKKELCLGEMKESSIDDLMKSLDKNSDQEIDFKEYSVFLTMLCMAYNDFFLEDNK | soluble
8 | METQDHTLYVLLGPTGVGKTDLSLDIAERLGSPIISADSRQIFRELPIGTAAPTPEQRAKVPHLFVGTHSVRDYYSAGMYEVEVLEALKELFRKYRGVLLTGGSMMYIDAVCRGIDDIPDPFPEVREELYARYAAEGLDGILAQLRLLDPDYYAKVDRRNYKRVIHGLEICLSTGRPFSSFHRHEAKERPFRIVKIGLYREREELCKRIDARVLEMMEQGLEEEARAVYPLRHLNALNTVGYKEMFEYFDGSIDRAEAVRRIQRNSRVYARKQMTWFRRDSTIRWFHPEADKGTVLTLVT | not soluble
9 | METQWTRMTANEAAEIIQHNDMVAFSGFTPAGSPKALPTAIARRANEQHEAKKPYQIRLLTGASISAAADDVLSDADAVSWRAPYQTSSGLRKKINQGAVSFVDLHLSEVAQMVNYGFFGDIDVAVIEASALAPDGRVWLTSGIGNAPTWLLRAKKVIIELNHYHDPRVAELADIVIPGAPPRRNSVSIFHAMDRVGTRYVQIDPKKIVAVVETNLPDAGNMLDKQNPMCQQIADNVVTFLLQEMAHGRIPPEFLPLQSGVGNINNAVMARLGENPVIPPFMMYSEVLQESVVHLLETGKISGASASSLTISADSLRKIYDNMDYFASRIVLRPQEISNNPEIIRRLGVIALNVGLEFDIYGHANSTHVAGVDLMNGIGGSGDFERNAYLSIFMAPSIAKEGKISTVVPMCSHVDHSEHSVKVIITEQGIADLRGLSPLQRARTIIDNCAHPMYRDYLHRYLENAPGGHIHHDLSHVFDLHRNLIATGSMLGLEHHHHHH | not soluble
10 | METRQASGQLAALVRPNDVNSGSLLFPSKEPGFYVEAPRLKTDVAIDVSGPIARVKVTQRFQNPSQGWIEGTYVFPLPDNSAVDALKMQIGDRFIEGQIKPRQEAREIYEQAKAEGKKTALLEQQRPNIFTNQVANIGPGEEIVVQIEYQQTVHQSGGEFSLRFPMVVAPRYNPAPIVQTVDFNNGAGFAIPRDPVQNREKIEAPVLDPRENARINPVSLTVNLKAGFPLGEVKSSFHDVDIGQDGDQARTISLKGDAVPADKDFELTWKAAPGKTPSAGLFREAIDGKTYLLAFVTPPTAPDAAAPSKREVVFVIDNSGSMSGQSIEQARQSLALAISRLNPNDRFNVIRFDDTMTDYFKGLVAATPDNREKAVAYVRSLTADGGTEMLPALEDALRNQGPVASGALRQVVFLTDGAIGNEQQLFQEITANRGDARVFTVGIGSAPNTYFMTKAAEVGRGTFTQIGSTDQVASRMSELFAKLQNPTMTDIAASFEGIEAEDITPNPMPDLYSGEPVVLTAELPQDKAAGKLQIVGKTGDQPWRVEMDIANAAVGSGISKLWARRKIDDLEARAYERQDPAALDKDIEAVALAHHLVSRVTSLVAVDVTPSRPANEPLGSAKLPLNLPEGWDFGKVFGEKAVPSGGAERHGAATPAGSAEPQRAAAATQDLAASPEIANLMAAAPTAKAATLIAQKSSTVNLPQTATRADEQIMRGLEHHHHHH | soluble
11 | MEVDNVKPSSSVPQRNWEKENNVQNVDSIFEYNNKQQVEIRNAKPWDKDPHYFKQIKISAIALLKMTMHAKRGGNLEIMGLLQGRIDANSFIILDVFALPVEGTETRVNAQAQAYEYMTVYSEMCDTEGRKEKVVGWYHSHPGYGCWLSGIDVSTQTLNQKFQEPWVAIVIDPLRTMSAGKVDIGAFRTYPEGYRPPDDVPSEYQSIPLAKIEDFGVHCKRYYSLDVSFFKSQLDAHILTSLWNSYWISTLSSSPLFSNVEFLNNQIQDINQKLSAVDKKLQLNDRSVDGHEALMKVVTDAKAVGDELETGRISHLVKQLLFARQAGGGCGCSHASAGSPMDIAVATEPEKAGPSPSAPEPAVEMADA | not soluble
12 | MEVDTASSRHSTVLKRKATDSINEILNYGQSSTSPQKRCKKAASLHKYRDMETYHKIIKTYKAPTWYGCAVSPRDLADYGWACVKKDCVKCIECEQYLSTVLPNICKVSFNVYNSSLQDIHEKMTTAHRTTCKLRCGAPPFRIVEPTAKEVMDGIQRRLSDSKKIIDEDLKADIPSDVNLPKIEGVPEQLIYVAALGWHVSMPKRGSLLFGCDNCARELAIRCGNKFDPIHNHERWCPRIEMDDHGEPSWQSDLNTVLNTKNHVTNRYTGSSIFKEAYAARRLLDSSLSTIITPNYI | not soluble
13 | MEVEIKFKIKLEDFLHTLNTFNPEFVRYEEQEDVYFEVPRPKLLRIRGVHNLKKYYLTFKEILDENNEEFYEVEFEIGDFEKAVEVFKRLGFKIQATIKKKRWVYKLNGVTLEVNRVEGIGDFVDIEVISDSPEEAKEKIWEVAKMLGLKEEDVEPRLYLELINELSGRSSLEHHHHHH | soluble
14 | MEVFVFTPKGDLYKMPKGATVLDFAFAIHSKLGSKCIGAKVNGKNAQLKQTLNSGDQVEVMTSNTQTPKLEHHHHHH | not soluble
15 | MEVQSMLLNDVKWEKPVTISLQNGAPRIFNGVYEAFDFLQHEWPARGDRAHEQALRLCRASLMGDVAGEIARTAFVAASRQAHCLMEDKAEAPNTIASGS | soluble
16 | MEVSKIRIHDLPEEERPRERLIKNGPESLSNAELLGIVLRTGSREENVISLCSRILMEYNIKQLSLANVSKLMQVNGIGKAKAAQIAAVFELARRLETFVEEPKRKISSPKDVYTLMYPKMREQKKEKFITLYLDTKNQILKEEVVSIGSLNASIVHPREVFKSALMESSASVIMVHNHPSGDPSPSREDIMVTEKLVEGGKLLGIDILDHIIIGDGRYVSLKDEGFVK | not soluble
17 | MEVSSVFIFPPKPKDVLTITLTPKVTCVVVDISKDDPEVQFSWFVDDVEVHTAQTQPREEQFNSTFRSVSELPIMHQDWLNGKEFKCRVNSAAFPAPIEKTISKTKGRPKAPQVYTIPPPKEQMAKDKVSLTCMITDFFPEDITVEWQWNGQPAENYKNTQPIMDTDGSYFVYSKLNVQKSNWEAGNTFTCSVLHEGLHNHHTEKSLSHSPGKE | soluble
18 | MEVYSKLRAPPSSRMILRLDGRGFHRLTESLDFDRPYDEAFRDLMIRTCLDLMEEFSPSLIYTFSDEINVLLDSVPFAGRVEKLDSVFSGFASSSFTRGALEAGFSPVKPVSFDCRVIPISSDIVPEYFRSRQDESWRNCLNSYAYWTLRREVGARRAAERLRGLKSDSLHDLLFERGVNISRVPAWQRRGVGVYRVPHRVRGYNPIRDEEVSAVRMRVKVDLELPLFTDEFFEGLMRLEHHHHHH | soluble
19 | MEWKDIKGYEGHYQVSNTGEVYSIKSGKTLKHQIPKDGYHRIGLFKGGKGKTFQVHRLVAIHFCEGYEEGLVVDHKDGNKDNNLSTNLRWVTQKINVENQMSRGTLNVSKAQQIAKIKNQKPIIVISPDGIEKEYPSTKCACEELGLTRGKVTDVLKGHRIHHKGYTFRYKLNG | soluble
